The record followed here is patent US20230312724A1 (KADMON, published 2023).

Assay [1] addresses T1, IgV domain of human B7-H4-Fc (human).
T1 construct: also called hB7-H4 IgV domain
Nature of the assay: ELISA, coated hB7-H4 IgV domain. In outline:
(§1)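 Antibody titrations were applied for 1-1.5 h at RT to wells precoated (4° C overnight) with roughly 1-2 μg/ml human or mouse B7-H4-Fc or his-tagged protein, then blocked with 3% PBS+milk. Detection used HRP anti-hFab and TMB at OD450; EC50 from the curve.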
For orientation: ELISA stands for enzyme-linked immunosorbent assay.

Assay [2] deals with T2, human B7-H4-Fc (human).
T2 construct: also called hB7-H4-Fc; hB7-H4 Fc
T2 sequence (chain, as listed by the source): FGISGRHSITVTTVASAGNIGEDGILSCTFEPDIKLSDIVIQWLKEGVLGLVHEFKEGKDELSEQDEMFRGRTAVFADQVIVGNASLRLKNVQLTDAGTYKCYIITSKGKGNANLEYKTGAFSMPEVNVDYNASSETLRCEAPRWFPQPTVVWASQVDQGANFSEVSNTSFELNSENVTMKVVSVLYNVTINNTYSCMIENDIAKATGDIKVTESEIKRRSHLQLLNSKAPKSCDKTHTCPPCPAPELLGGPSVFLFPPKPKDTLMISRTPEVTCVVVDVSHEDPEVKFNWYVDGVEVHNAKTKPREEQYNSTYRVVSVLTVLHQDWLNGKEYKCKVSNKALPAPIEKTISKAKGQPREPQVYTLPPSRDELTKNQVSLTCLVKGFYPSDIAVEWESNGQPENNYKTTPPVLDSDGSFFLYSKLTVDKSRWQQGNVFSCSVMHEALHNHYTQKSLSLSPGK
The experiment in a line: ELISA on coated hB7-H4-Fc. The procedure:
(§2) About 1-2 μg/ml of human or mouse B7-H4-Fc (or his-tagged) was immobilized on ELISA plates (Immuno 2HB, Thermo scientific, cat #3455) at 4° C. overnight. After blocking the plates with 3% PBS+milk, serial diluted antibodies were added to the blocked plates and incubated at RT for 1-1.5 h. After washing the plates with PBS-T (0.05%), horse radish peroxidase (HRP)-conjugated antibody targeting the hFab was added to the plate. Signals were developed by adding 3,3′,5,5′-Tetramethylbenzidine (TMB (followed 1N of H₂SO₄ to stop the reaction. The OD at 450 nm was read by ELISA plate reader (Infinite M1000 from TECAN). GraphPad from Prism was used to plot OD450 vs. antibody concentration curve and to calculate the EC50 values.

The target in the next assay is T3, mouse B7-H4-his (mouse, UniProt Q7TSP5 25-257).
T3 construct: also called mB7-H4-his; mB7-H4-His; not shown: his tag
T3 sequence: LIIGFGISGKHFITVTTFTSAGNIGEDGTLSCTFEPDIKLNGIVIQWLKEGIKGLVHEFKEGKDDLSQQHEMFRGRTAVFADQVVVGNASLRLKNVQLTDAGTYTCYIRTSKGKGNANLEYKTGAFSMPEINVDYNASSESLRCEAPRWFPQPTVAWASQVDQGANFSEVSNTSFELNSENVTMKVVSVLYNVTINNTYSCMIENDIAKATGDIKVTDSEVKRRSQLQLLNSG
Nature of the assay: ELISA on coated mB7-H4-his. Here is the method: as §2

In assay [3] the target is T2, human B7-H4-Fc. Nature of the assay: ELISA, coated hB7-H4-Fc. Here is the method: (§3) ELISA experiments were performed to determine binding to hB7-H4-Fc (FIG. 5A), hB7-H4-his (FIG. 5B), mB7-H4-Fc domain (FIG. 5C), hB7-H4 IgV domain (FIG. 5D), and hB7-H4 IgC domain (FIG. 5E). Flow cytrometry experiments were performed to determine binding to CHO cells expressing hB7-H4 (FIG. 5F) or mB7-H4 (FIG. 5G). […] A cross-reactive IgV binding antibody and an IgC binding antibody were used as controls.
as §2

Assay [4] concerns the target T1, IgV domain of human B7-H4-Fc. The experiment in a line: ELISA on coated IgV domain of hB7-H4. The procedure: as §2
Assay [5] has the same target. Nature of the assay: ELISA, coated hB7-H4 IgV domain. The procedure:
as §3, §2
This is another data set of the same source.

The target in assay [6] is T4, mouse B7-H4 expressed on cells (mouse, UniProt Q7TSP5 25-257).
T4 construct: also called cellular mB7-H4; mB7-H4/CT26
T4 sequence: T3 sequence
Nature of the assay: flow cytometry, mB7-H4/CT26 cells. The method, boiled down: (§4)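 Binding titrations: test proteins in serial dilution incubated on cells for 1 h at 4 °C in ice-cold FACS buffer. Detection with secondary antibody diluted 1:200.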

In assay [7] the target is T5, human B7-H4 expressed on cells (human, UniProt Q7Z7D3 25-282).
T5 construct: Transfected CHO cells or tumor cell lines that carry hB7-H4; also called cellular hB7-H4
T5 sequence: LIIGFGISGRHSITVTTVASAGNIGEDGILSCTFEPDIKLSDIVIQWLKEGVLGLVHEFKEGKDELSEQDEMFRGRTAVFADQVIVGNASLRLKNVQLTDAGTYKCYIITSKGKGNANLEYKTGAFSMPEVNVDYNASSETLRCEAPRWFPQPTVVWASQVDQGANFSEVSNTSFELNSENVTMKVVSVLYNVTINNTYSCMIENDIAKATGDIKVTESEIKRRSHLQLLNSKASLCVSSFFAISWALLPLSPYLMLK
Nature of the assay: flow cytometry on SK-BR-3 cells. The procedure:
(§5) Cells were harvested, washed once, and then re-suspended to the concentration of 1×10⁶ cells/ml in ice cold FACS Buffer. 25 μl of cell suspension was added to each well of a 96-well round-bottom microliter plate. Serially diluted antibodies or fusion proteins were added to each well and incubated for 1 hour at 4° C. Cells were washed three times by centrifugation at 1500 rpm for 5 minutes, and then stained with secondary antibody (1:200 dilution) for 30 min at 4° C. in the dark. Cells were washed once, re-suspended in 100 μl PBS buffer and then analyzed using Guava Flow Cytometry EasyCyte system.

Assay [8] has as its target T6, hB7-H4 (soluble human B7-H4, construct not named) (human, UniProt Q7Z7D3 25-259, limits assumed).
T6 construct: also called soluble hB7-H4
T6 sequence: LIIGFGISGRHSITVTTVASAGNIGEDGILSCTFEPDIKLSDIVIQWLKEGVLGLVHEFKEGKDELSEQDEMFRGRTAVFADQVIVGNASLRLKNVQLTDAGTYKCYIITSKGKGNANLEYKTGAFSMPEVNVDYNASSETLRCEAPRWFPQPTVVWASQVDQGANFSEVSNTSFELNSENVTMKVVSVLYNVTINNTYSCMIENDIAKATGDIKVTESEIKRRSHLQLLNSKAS
Nature of the assay: ELISA, hB7-H4. In outline: as §1

Assay [9] has as its target T5, human B7-H4 expressed on cells. The experiment in a line: flow cytometry, SK-BR-3 cells. The method, boiled down: as §4
(In general: A flow cytometer gives signals particle by particle.)

For assay [10], the target named is T1, IgV domain of human B7-H4-Fc. Nature of the assay: ELISA, coated hB7-H4 IgV domain. The source holds these as a separate data set.
Assay [11] has as its target T4, mouse B7-H4 expressed on cells. Nature of the assay: flow cytometry on mB7H4-CT26 cells. The procedure:
as §5

T1 sequence (chain, as listed by the source): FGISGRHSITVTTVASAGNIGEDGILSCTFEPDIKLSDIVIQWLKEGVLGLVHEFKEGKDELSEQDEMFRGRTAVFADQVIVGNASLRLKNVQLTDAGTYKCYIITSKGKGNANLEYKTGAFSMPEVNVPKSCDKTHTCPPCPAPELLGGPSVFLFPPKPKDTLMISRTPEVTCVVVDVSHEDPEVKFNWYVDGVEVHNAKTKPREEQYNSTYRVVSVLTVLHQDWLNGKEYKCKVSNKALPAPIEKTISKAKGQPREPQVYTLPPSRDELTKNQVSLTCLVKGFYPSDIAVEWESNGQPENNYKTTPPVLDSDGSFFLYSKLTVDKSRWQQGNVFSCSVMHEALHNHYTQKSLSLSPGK

B1: Control antibody 1 (antibody 20502 described in US20190085080A1) (antibody, V domains shown)
VH: QLQLQESGPGLVKPSETLSLTCTVSGGSIKSGSYYWGWIRQPPGKGLEWIGNIYYSGSTYYNPSLRSRVTISVDTSKNQFSLKLSSVTAADTAVYYCAREGSYPNQFDPWGQGTLVTVSS
VL: EIVMTQSPATLSVSPGERATLSCRASQSVSSNLAWYQQKPGQAPRLLIYGASTRATGIPARFSGSGSGTEFTLTISSLQSEDFAVYYCQQYHSFPFTFGGGTKVEIK
notes: also called (+) control Ab1; (+) Ab1
Take B1: the EC50 (read off the curve) (in general, the concentration giving half of the maximal effect) in assay [1] is approximately 0.2 nM; with human B7-H4-Fc [2], approximately 0.1 nM; with mouse B7-H4-his, approximately 0.2 nM; with human B7-H4-Fc [3] it was approximately 0.07 nM; in [4] it was approximately 0.2 nM; in assay [5] it was approximately 0.2 nM.

B2: 39A11/57G8 (antibody, human IgG1, V domains shown)
VH: EVQLLESGGGLVQPGGSLRLSCAASGFTFSSYGMHWVRQAPGKGLEWVASISSSSGYIYYADSVKGRFTISRDNSKNTLYLQMNSLRAEDTAVYYCARASSGMDVWGQGTTVTVSS
VL: DIQMTQSPSSLSASVGDRVTITCRASQSIRSYLNWYQQKPGKAPKLLIYYASSLQSGVPSRFSGSGSGTDFTLTISSLQPEDFATYYCQQYYSTPLTFGQGTKVEIK
notes: 39A11 VH with 57G8 VL
Regarding B2, the half-maximal effective concentration (EC50) (usually the concentration giving half of the maximal effect) in [6] came to 1.22 nM; in [8] it was 0.068 nM; in assay [9] it was 1.9 nM. Moreover, the “EC50 (read off the curve)” value in assay [7] was approximately 2 nM; in [10], approximately 0.1 nM; in assay [11] it was approximately 2 nM.
